Experimental data: patent US20230310702A1, “SELF-ASSEMBLING PEPTIDES, PREPARATION METHODS, SELF-ASSEMBLING PEPTIDE FORMULATIONS AND USE” (Success Bio-Tech Co., Ltd., priority 2020, published 2023)
“Also recorded” adds a separate entry of the source.

What was measured:
[1] = Fluidity / viscosity of peptide solutions on dissolution (observation); type: physicochemical; conditions: for viscosity during dissolution: with increasing concentration
Method: (§1) Peptide solutions with different concentrations were prepared, and an appropriate amount of 10×PBS was added such that the final PBS concentration of the solution was 1×, after the solution was in contact with PBS to be triggered to be gel, the gel was taken out slowly with a spoon and placed onto a rheometer plate. A 40 mm plate was placed leaving the gap of about 450 µm, and kept at 37° C. for 5 minutes under a pressure of 1 pa, and frequency scanning was at 0.1 hz-10 hz. […] The highest concentration of the solution was set with the reference to the highest concentration at which a gel will not form immediately when the peptide was fully dissolved, according to which peptide solutions with a serial of diluted concentrations were prepared to perform storage modulus detections. For peptides represented by ① and ② in which the head and the tail are Pro, the storage modulus were able to reach 1000pa or higher after the PBS triggered the gelation, whereas before gelation, the solution can also maintain good fluidity.

[2] = system: stomach mucosa (posterior submucosal layer); assay: Rabbit stomach submucosal injection; type: in vivo, New Zealand rabbit; conditions: 0.5 ml injected, 25G needle, observed 30 min
Method: After a New Zealand rabbit was fastened for 24 hours, injection anesthesia was conducted from the ear vein, the abdomen was then opened, afterwards a stoma was made in the anterior wall of the stomach to expose a stomach mucosa, and 0.5 ml of normal saline was injected into a posterior submucosal layer using a 25G needle. After being observed for 30 min, the rabbit was sacrificed, a tissue was then taken out and fixed in formalin for 2 days, embedded by paraffin, sectioned, and finally stained with hematoxylin and eosin (FIG. 8A). 0.5 ml of a 10 mg/ml sodium hyaluronate solution (FIG. 8B) and 0.5 ml of a 3% peptides ① water solution (FIG. 8C) were injected by the same method.

liver wound = assay: Rabbit liver hemostasis experiment; type: in vivo
Method: Hemostatic process: a peptide aqueous solution ① with a concentration of 3% was prepared, abdomen was opened after anesthesia of the rabbit, liver was exposed, and after the hepatic vessel was lacerated, the blood flowed out. After the blood flowed out was wiped off with a gauze, the peptide aqueous solution was sprayed onto the wound site immediately, and timing was conducted.

rabbit back skin wound = assay: Rabbit hemostasis experiment on the back; type: in vivo, New Zealand rabbits
Method: Hemostatic procedures: a peptide aqueous solution ① with a concentration of 3% was prepared for rabbit hemostasis on the back. After injection of anesthesia via ear veins in New Zealand rabbits, a skin incision of about 1.5 cm was made on the back, and an incision depth was made until a blood vessel ruptured, and blood flowed out. After the blood flowed out was wiped off with a gauze, the peptide aqueous solution was sprayed onto a wound site immediately, and timing was conducted. In the hemostatic process, oozed blood was wiped constantly with a gauze, until no blood flowed out, and the timing was stopped, and after 1 minute, excess gel was removed, and the wound was observed whether the blood further oozed out.

[3] = system: colonic mucosa (submucosal layer); assay: Colonic submucosal injection of rabbits; type: in vivo, New Zealand rabbit; conditions: 0.5 ml injected, 25G needle, observed 30 min; colon
Method: A New Zealand rabbit was fastened for 24 hours, injection of anesthesia was conducted via the ear vein, the abdomen was then opened, afterwards an open cutting was conducted along a midline of a colon to expose the colonic mucosa, 0.5 ml of normal saline was injected into the submucosal layer using a 25G needle. After observing for 30 min, the rabbit was sacrifice, a tissue was then taken out and fixed in formalin for 2 days, embedded by paraffin, sectioned, and finally stained with hematoxylin and eosin (FIG. 9B). 0.5 ml of a 10 mg/ml sodium hyaluronate solution (FIG. 9C) and 0.5 ml of a 3% peptide aqueous solution ① (FIG. 9D) were injected by the same method. An untreated normal tissue was used as a control (FIG. 9A).

[4] = Viscosity testing of peptide solution (rheometer); type: physicochemical; conditions: shear rate 10 1/s
Method: A peptide solution was prepared, a 50 mm plate was chosen for the rheometer, a 1 mm gap was set, and 2 ml of the peptide solution was taken, and placed in the gap under the plate. The shear rate was set as 10 1/s. Average values were recorded.

[5] = Rheological property detection (storage modulus of triggered gel); type: physicochemical; conditions: concentration of 2.5%; after contact with a metallic ion or change pH value
Method: as §1

[6] = 3% peptide aqueous solution sprayed onto liver wound

Q: Which viscosity during dissolution [1] does the source give for “AC-Pro-Arg-Val-Asp-Val-Arg-Pro-Asp-Val-Arg-Val-Asp-Pro-amide (Ac-PRVDVRPDVRVDP-NH2) [compound ④]” here?
A: Its viscosity during dissolution is “increased with the increase of the concentrations”.

Q: Which viscosity during dissolution [1] does the source give for “AC-Pro-Arg-Val-Asp-Val-Arg-Val-Asp-Val-amide (Ac-PRVDVRVDV-NH2) [compound ③]” here?
A: Its viscosity during dissolution is “increased with the increase of the concentrations”.

Q: What does the source list for “AC-Pro-Arg-Val-Asp-Val-Arg-Val-Asp-Pro-amide (Ac-PRVDVRVDP-NH2) [compound ①]”?
A: submucosal cushion layer (hematoxylin and eosin staining) [2]: fine and tight, and not loose; gel formation on contact with blood (liver wound; [6]): formed immediately; time until bleeding completely stopped (liver wound; [6]): about 15 s; hemostasis after excess hydrogel was removed (liver wound; 3% peptide aqueous solution, liver wound): hemostasis still obtained; fluidity of solution ([1]; before gelation): good fluidity; time until no blood flowed out (rabbit back skin wound; 3% peptide aqueous solution sprayed onto back skin incision): about 20 s; gel formation on the wound (rabbit back skin wound; 3% peptide aqueous solution sprayed onto back skin wound): formed immediately; bleeding after hydrogel covering the surface was removed (rabbit back skin wound; 3% peptide aqueous solution, back skin wound): no blood oozed out; submucosal filling (hematoxylin and eosin staining) [3]: filled with the peptide gel; Viscosity ([4]; concentration 3%): Under the detection limit; Viscosity ([4]; concentration 4%): No viscosity numerical value was detected; also recorded: Under the detection limit

Q: What does the source list for “AC-Pro-Lys-Val-Glu-Val-Lys-Val-Glu-Pro-amide (Ac-PKVEVKVEP-NH2) [compound ②]”?
A: fluidity of solution ([1]; before gelation): good fluidity; Viscosity ([4]; concentration 3%): Under the detection limit; Viscosity ([4]; concentration 4%): No viscosity numerical value was detected; also recorded: Under the detection limit

Q: Which results are given for “AC-Arg-Ala-Asp-Ala-Arg-Ala-Asp-Ala-Arg-Ala-Asp-Ala-Arg-Ala-Asp-Ala- amide [compound ⑤]”?
A: fluidity of solution ([1]; concentration of 2.5%): almost lost fluidity; viscosity during dissolution [1]: increased with the increase of the concentrations; Viscosity ([4]; concentration 1%): 955.17 mPa·s; Viscosity ([4]; concentration 1%, listed as AC-(RADA)4-amide): high viscosity; also recorded: high viscosities; Viscosity ([4]; concentration 2%): 1817.96 mPa·s; Viscosity ([4]; concentration 2.5%): 2514.57 mPa·s; storage modulus [5]: less than 700 pa

Q: For “AC-Arg-Val-Asp-Val-Arg-Val-Asp-Val-amide (Ac-RVDVRVDV-NH2) [comparison peptide without Pro in the viscosity test]”, which Viscosity ([4]; concentration 1%) is on record?
A: The Viscosity was 658.25 mPa·s.

Q: And the Viscosity ([4]; concentration 1%, listed as AC-RVDVRVDV-amide)?
A: The Viscosity was “high viscosities”.

Q: And the Viscosity ([4]; concentration 2%)?
A: Its Viscosity is 1546.21 mPa·s.
